Results: US20230383245A1, “CULTURE MEDIUM COMPOSITION” (NISSAN CHEMICAL CORPORATION, priority 2014, published 2023)

Assay: Viscosity measurement and state of medium composition (E type viscometer)
Format: physicochemical
Experimental: Deacylated gellan gum (KELCOGEL CG-LA, manufactured by SANSHO Co., Ltd.) was suspended in pure water to 0.4% (w/v), and dissolved by stirring with heating at 90° C. This aqueous solution was allowed to cool to room temperature with stirring, and sterilized at 121° C. for 20 min in an autoclave. A 2-fold concentration of DMEM/F-12 medium (manufactured by Aldrich, 50 mL) and sterilization water (47.5 mL) were placed in a 300 mL tall beaker with stirring by a homomixer (3000 rpm) at room temperature, aqueous deacylated gellan gum solution (2.5 mL) was added, and the mixture was continuously stirred for 1 min to prepare a deacylated gellan gum medium composition with a final concentration of 0.01%. Medium compositions added with aqueous deacylated gellan gum solution with final concentrations of 0.02, 0.03 and 0.05% (w/v) were similarly prepared. The viscosity of the medium compositions was measured using an E type viscometer (manufactured by Toki Sangyo Co., Ltd., Viscometer TVE-22 L, standard roter 1°34′×R24) under 37° C. condition at 100 rpm for 5 min.
The medium compositions prepared above were subjected to a suspension test of HeLa cell spheres and a viscosity measurement, in the same manner as with the deacylated gellan gum-containing medium. The viscosity of 1.0% (w/v) methylcellulose was measured at 50 rpm due to the measurement range of the apparatus.
In the same manner as in Reference Experimental Example 2, spheres of HeLa cells were formed, and several tens of the spheres were added to each medium (1 mL) prepared above, the mixture was stood still at 37° C. for 1 hr, and the suspended state of the sphere cells was visually observed. […] Furthermore, it was confirmed that addition of an equal amount of the medium to the cell suspension and centrifugation (300 to 400G, for 5 min) thereof result in sedimentation and recovery of the spheres of HeLa cells.
By a method similar to that for the polysaccharide mixture of Reference Experimental Example 9, DMEM/F-12 media containing deacylated gellan gum at a final concentration of 0.005, 0.01% (w/v) and other polysaccharide were prepared. The final concentration of polysaccharide was set to 0.1% (w/v) for xanthan gum, sodium alginate, locust bean gum, 0.2% (w/v) for methylcellulose, and 0.05% (w/v) for K-carageenan and diutan gum. The state of each medium composition and the viscosity measured by a method similar to that in Analysis Example 1 are shown in Tables 11-16.

Substance: collagen
- state (concentration 0.01 %(w/v) in DMEM/F-12): liquid
- viscosity (concentration 0.01 %(w/v) in DMEM/F-12, 37° C., 100 rpm): 1.18 mPa · s
- state (concentration 0.05 %(w/v) in DMEM/F-12): liquid/solid (gel)
- state (concentration 0.1 %(w/v) in DMEM/F-12): solid (gel)
- state (concentration 0.2 %(w/v) in DMEM/F-12): solid (gel)
